According to patent US20050163796A1:
Where two headings read alike, the source gives them in different places.

Key:
[1] = biological target: HLA-B*0702 on HLA-B*0702 transfected TAP- T2 cells (human); assay: HLA-B*0702 stabilisation on T2-B*0702 cells, FACS with ME.1 mAb; concentration to reach 20% of maximal fluorescence relative to R10V; conditions: scale: ratio of concentrations, tested peptide / R10V reference
[2] = biological target: HLA-B*0702 on HLA-B*0702 transfected TAP- T2 cells (human)
[3] = scale: ratio of concentrations, tested peptide / R10V reference

Binder: SPHPRISSEV (modifications not checked) [S10EV]
- RA (relative affinity) [1]: 1.11

Binder: LPLPPLDRL (modifications not checked) [L9RL]
- RA (relative affinity) [1]: 6.13

Binder: AAISPVLRL (modifications not checked) [A9RL]
- RA (relative affinity) [2, 3]: 15

Binder: MPVYPQTPT (modifications not checked) [M9PT]
- RA (relative affinity) [2, 3]: 0.94

Binder: LPPLDRLTL (modifications not checked) [L9TL]
- RA (relative affinity) [1]: 3.51

Binder: IPLGDARLVI (modifications not checked) [I10VI]
- RA (relative affinity) [1]: 2.33

Binder: KPPLPSVTKL (modifications not checked) [K10KL]
- RA (relative affinity) [1]: 3.55

Binder: SPVLRLRPPV (modifications not checked) [S10PV]
- RA (relative affinity) [2, 3]: 0.85

Binder: QPIQIAIAAL (modifications not checked) [Q10AL]
- RA (relative affinity) [1]: 6.5

Binder: TPKKIKPPL (modifications not checked) [T9PL]
- RA (relative affinity) [1]: 1.29

Binder: APTKAKRRVV (modifications not checked) [A10VV]
- RA (relative affinity) [1]: 1.14

Binder: HPRISSEVHI (modifications not checked) [H10HI]
- RA (relative affinity) [1]: 3.7

Binder: QPPLYFVHQM (modifications not checked) [Q10QM]
- RA (relative affinity) [2, 3]: 49

Binder: YPLASLRSLF (modifications not checked) [Y10LF]
- RA (relative affinity) [2]: 3.25

Binder: QPRSDTHVF (modifications not checked) [Q9VF]
- RA (relative affinity) [2, 3]: 1.56

Binder: GPHMPVYPQT (modifications not checked) [G10QT]
- RA (relative affinity) [2, 3]: 22

Binder: PPQGSQTHQV (modifications not checked) [P10QV]
- RA (relative affinity) [1]: 8.97

Binder: RPVVSTQLLL (modifications not checked) [R10LL]
- RA (relative affinity) [1]: 2.25
